Experimental data taken from PMC9534319 (2022).

Biological target: h219 (VH9/VK2)
Test: BLI

Kd: 0.66 nM
B1: his tagged human LAIR1 recombinant protein (receptor)
chain: QEEDLPRPSISAEPGTVIPLGSHVTFVCRGPVGVQTFRLERDSRSTYNDTEDVSQASPSESEARFRIDSVREGNAGLYRCIYYKPPKWSEQSDYLELLVKESSGGPDSPDTEPGSSAGPTQRPSDNSHNEHAPASQGLKAEHLY
